Measurements published in IntAct's records for PubMed 17997972.

B1: Nuclear distribution protein nudE-like 1 (Homo sapiens), Q9GZM8 (parent)
chain: MDGEDIPDFSSLKEETAYWKELSLKYKQSFQEARDELVEFQEGSRELEAELEAQLVQAEQRNRDLQADNQRLKYEVEALKEKLEHQYAQSYKQVSVLEDDLSQTRAIKEQLHKYVRELEQANDDLERAKRATIVSLEDFEQRLNQAIERNAFLESELDEKESLLVSVQRLKDEARDLRQELAVRERQQEVTRKSAPSSPTLDCEKMDSAVQASLSLPATPVGKGTENTFPSPKAIPNGFGTSPLTPSARISALNIVGDLLRKVGALESKLAACRNFAKDQASRKSYISGNVNCGVLNGNGTKFSRSGHTSFFDKGAVNGFDPAPPPPGLGSSRPSSAPGMLPLSV
partner: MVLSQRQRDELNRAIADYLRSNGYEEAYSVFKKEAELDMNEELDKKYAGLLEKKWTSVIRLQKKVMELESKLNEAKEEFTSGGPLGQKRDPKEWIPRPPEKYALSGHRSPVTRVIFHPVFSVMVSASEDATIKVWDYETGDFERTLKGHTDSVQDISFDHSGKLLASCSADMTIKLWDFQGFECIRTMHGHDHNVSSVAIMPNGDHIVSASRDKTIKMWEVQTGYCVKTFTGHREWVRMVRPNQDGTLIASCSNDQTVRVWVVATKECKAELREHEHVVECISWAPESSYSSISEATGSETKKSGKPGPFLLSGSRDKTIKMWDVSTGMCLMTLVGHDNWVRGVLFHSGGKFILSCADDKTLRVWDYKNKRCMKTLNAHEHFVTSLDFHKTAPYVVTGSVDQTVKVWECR

Variants of: B1
Details: with lis1_mouse Pafah1b1, P63005

| Variant | effect of a mutation on the interaction |
| --- | --- |
| R130A | disrupting interaction |
| E119A | disrupting interaction |
